Measurements published in patent US20210349096A1.

Target: LILRB4 on human monocytic AML THP-1 cells (human) (UniProt Q8NHJ6)
Assay: flow cytometry, anti-His tag-APC alone on wild-type THP-1 cells (negative control); lilrb4-knockout THP-1 cells in the same panel: KO 0.9% [panel e]

Chain of LILRB4 on human monocytic AML THP-1 cells (human) (Q8NHJ6 22-448): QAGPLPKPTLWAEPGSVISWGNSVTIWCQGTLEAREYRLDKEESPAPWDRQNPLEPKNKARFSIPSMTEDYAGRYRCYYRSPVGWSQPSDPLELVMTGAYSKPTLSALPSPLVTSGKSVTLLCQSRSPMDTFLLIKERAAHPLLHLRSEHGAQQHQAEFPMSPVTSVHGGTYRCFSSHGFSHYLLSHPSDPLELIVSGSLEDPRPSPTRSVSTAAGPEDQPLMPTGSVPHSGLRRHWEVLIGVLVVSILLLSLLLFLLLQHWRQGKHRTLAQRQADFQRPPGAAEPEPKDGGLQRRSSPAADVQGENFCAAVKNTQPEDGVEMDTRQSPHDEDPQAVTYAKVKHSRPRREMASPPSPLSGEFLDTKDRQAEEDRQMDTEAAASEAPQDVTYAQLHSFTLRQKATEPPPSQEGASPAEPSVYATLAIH

% of cells in the positive gate: 0.4%
Substance: Ctrl (anti-His tag-APC) (antibody)
